The values that follow come from patent US20170210813A1 (Regeneron, published 2017).

The target in experiment [1] is T1, hPDGFRb.mmh (human, UniProt P09619 33-531).
T1 construct: Soluble monomeric construct; also called soluble human PDGFR-beta.mmh
Description: Octet BLI cross-competition, 25 C; hPDGFRb.mmh on anti-Penta-His tips pre-saturated with mAb-1 H4H3099S (row 6). The protocol: (§1) A cross-competition assay was conducted to assess the ability of select antibodies to compete with one another for binding to human PDGFR-beta. […] Each PDGFR-beta.mmh-coated sensor tip was saturated for 5 min with a first anti-PDGFR-beta antibody (Mab #1; 50 μg/mL). Next, each sensor tip was saturated with a solution of a second anti-PDGFR-beta antibody (Mab #2). The real time response of Mab #2 binding to PDGR-beta.mmh pre-complexed with Mab #1 was then monitored. All assays were performed at 25° C. with a flow rate of 1000 rpm on an Octet RED384 biosensor in Octet HBST buffer according to manufacturer's instructions (ForteBio Corp., Menlo Park, Calif.). Results are illustrated in FIG. 2.
On the technique in general: Biolayer interferometry detects binding as a change in optical thickness at a sensor tip.

Experiment [2] concerns the target T1, hPDGFRb.mmh. The experiment in a line: Octet BLI cross-competition, 25 C; hPDGFRb.mmh on anti-Penta-His tips pre-saturated with mAb-1 H4H3305N (row 8). The protocol: as §1
Experiment [3] deals with T2, PDGFR-beta extracellular domain construct D1 (human).
T2 chain: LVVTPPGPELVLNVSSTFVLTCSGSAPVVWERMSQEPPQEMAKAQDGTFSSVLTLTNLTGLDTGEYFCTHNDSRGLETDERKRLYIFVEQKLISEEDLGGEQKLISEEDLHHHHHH
The experiment in a line: SPR, mAb captured, construct as analyte. The protocol:
(§2) Four different anti-PDGFR-beta antibodies were tested for binding to the various constructs by surface plasmon resonance (Biacore). Briefly, 150-200 RU's of anti-PDGFR beta antibody was captured via an anti-human Fc CM5 chip. Next, the individual domain constructs, or full-length PDGFR beta, was applied over the antibody-bound surface at a concentration of 50nM. The ability of the various antibodies to bind to the various domain constructs was measured. (−)=No binding observed; (+)=Binding observed; ND=Not determined.
On the technique in general: SPR reads the build-up and loss of mass on a sensor chip optically.

The target of experiment [4] is T3, PDGFR-beta extracellular domain construct D1-D3 (human).
T3 construct: also called D1-3
T3 chain: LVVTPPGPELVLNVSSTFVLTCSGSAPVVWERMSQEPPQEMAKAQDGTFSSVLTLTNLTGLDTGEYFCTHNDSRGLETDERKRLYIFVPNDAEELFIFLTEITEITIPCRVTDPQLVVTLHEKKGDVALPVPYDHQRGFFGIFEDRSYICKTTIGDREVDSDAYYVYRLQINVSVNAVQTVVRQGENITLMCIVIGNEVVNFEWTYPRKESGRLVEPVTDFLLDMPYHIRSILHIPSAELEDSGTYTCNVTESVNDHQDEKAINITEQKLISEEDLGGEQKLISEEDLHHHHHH
Description: SPR, mAb captured, construct at 50nM. As for the experimental part: as §2

Experiment [5] addresses T4, PDGFR-beta extracellular domain construct D1-D4 (human).
T4 construct: also called D1-4
T4 chain: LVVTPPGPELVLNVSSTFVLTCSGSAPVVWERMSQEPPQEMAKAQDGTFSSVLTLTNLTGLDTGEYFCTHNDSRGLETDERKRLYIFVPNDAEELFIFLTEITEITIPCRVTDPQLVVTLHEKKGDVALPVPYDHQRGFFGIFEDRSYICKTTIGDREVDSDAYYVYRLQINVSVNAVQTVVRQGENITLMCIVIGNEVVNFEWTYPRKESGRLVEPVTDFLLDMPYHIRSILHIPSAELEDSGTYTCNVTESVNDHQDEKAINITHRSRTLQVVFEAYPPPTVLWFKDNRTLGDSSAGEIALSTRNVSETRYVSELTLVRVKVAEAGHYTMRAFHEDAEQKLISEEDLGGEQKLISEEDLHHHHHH
Description: SPR, mAb captured, construct at 50nM. The protocol: as §2

Experiment [6] deals with T5, PDGFR-beta extracellular domain construct D1-D2 (human).
T5 construct: also called D1-2
T5 chain: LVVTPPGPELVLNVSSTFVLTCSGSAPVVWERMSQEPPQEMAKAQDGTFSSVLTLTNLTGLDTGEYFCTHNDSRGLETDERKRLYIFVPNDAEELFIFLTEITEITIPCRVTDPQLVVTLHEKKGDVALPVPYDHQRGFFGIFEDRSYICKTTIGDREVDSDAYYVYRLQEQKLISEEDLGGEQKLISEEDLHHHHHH
Description: SPR, mAb captured, construct at 50nM. The protocol: as §2

Experiment [7] concerns the target T1, hPDGFRb.mmh. The experiment in a line: Octet BLI cross-competition, 25 C; hPDGFRb.mmh on anti-Penta-His tips pre-saturated with mAb-1 H4H3365N (row 2). The protocol: as §1
The target of experiment [8] is T3, PDGFR-beta extracellular domain …. The experiment in a line: SPR, mAb captured, construct as analyte. As for the experimental part:
as §2

The target of experiment [9] is T4, PDGFR-beta extracellular domain …. The experiment in a line: SPR, mAb captured, construct as analyte. The protocol:
as §2

Experiment [10] concerns the target T5, PDGFR-beta extracellular domain …. The experiment in a line: SPR, mAb captured, construct as analyte. As for the experimental part: as §2

B1: H4H3094P (antibody, human IgG4, V domains shown)
VH: EVQLVESGGGLVQPGGSLRLSCAASGFTFSSYWMSWVRQAPGKGLEWVANMNQDGSETHYVDSVKGRLSISRDNAKKSLFLHMNSLRAEDTAVYFCARDLVPPRQDDYYYYFGMDVWGHGTTVTVSS
VL: DIQMTQSPSTLSASVGDRVTITCRASQSISDWLAWYQQKPGKAPKLLIFKASTLESGVPSRFSGSGSGTEFTLTISSLQPDDFATYYCQQYNSYSRTFGQGTKVEIK
notes: also called H4H3394P
Regarding B1, the “Response of mAb-2 Binding to hPDGFRβ.mmh Pre-Complexed with mAb-1 (nm)” value (“Response of mAb-2 Binding” below) with hPDGFRb.mmh [1] and with hPDGFRb.mmh [2] was 0.25 nm in each case. In addition, the binding result is on record as “no binding (tested: 50nM)” in experiment [3], “binds” in [4], “binds” in experiment [5] and “binds” in experiment [6].

B2: H4H3305N (antibody, human IgG4, V domains shown)
VH: QLQLQESGPGLVKPSETLSLTCIVSGGSISSSSYYWGWIRQPPGKGLEWIGSLYYSGITFYNPSLKSRVTISVDTSKNQFSLTLTSVTAADTAVFYCARHRVMASSPFDHWGQGTLVTVSS
VL: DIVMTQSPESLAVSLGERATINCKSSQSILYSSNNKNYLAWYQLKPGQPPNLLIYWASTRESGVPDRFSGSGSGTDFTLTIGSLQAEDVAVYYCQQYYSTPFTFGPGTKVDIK
notes: human IgG4 Fc (H4H prefix)
As for B2, the “Response of mAb-2 Binding” value was 0 nm with hPDGFRb.mmh [1] and 0.26 nm in the experiment with hPDGFRb.mmh [7]. In addition, the binding result in [8], in [9], in experiment [10] and in experiment [3] was “no binding (tested: 50nM)” throughout.

B3: H4H3374N (antibody, human IgG4, V domains shown)
VH: QLQLQESGPGLVKPSETLSLTCTVSGGSITSSSYYWGWIRQPPGKGLEWIGSIYYRGSTNYNPSLKSRVTISVDSSKNQFYLKVSSVTAVDTAVYYCARQNGAARPSWFDPWGQGTLVTVSS
VL: EIVLTQSPDTISLSPGERATLSCRASQSISSIYLAWYQQKPGQAPRLLIYGASSRVTGIPDRFSVSGSGTDFTLTISRLEPEDFAVYYCQHYGISPFTFGPGTKVDIR
notes: human IgG4 Fc (H4H prefix)
Turning to B3, the “Response of mAb-2 Binding” value amounted to 0.27 nm in the experiment with hPDGFRb.mmh [1], 0.01 nm with hPDGFRb.mmh [7] and 0.27 nm with hPDGFRb.mmh [2]. The binding result in [3] was “no binding (tested: 50nM)”; in [4] it was “binds”; in experiment [5], “binds”; in experiment [6] it was “binds”.

B4: H4H3099S (antibody, human IgG4, V domains shown)
VH: QITLKESGPTLVKPTQTLTLTCTFSGFSLTTTGVGVGWIRQPPGKALEWLALIYWNDLKRYSPSLKNRLTITKDTSRHQVVLTMTNMDPMDTATYYCAHRPLYYGSGSGWFDPWGPGTTVTVSS
VL: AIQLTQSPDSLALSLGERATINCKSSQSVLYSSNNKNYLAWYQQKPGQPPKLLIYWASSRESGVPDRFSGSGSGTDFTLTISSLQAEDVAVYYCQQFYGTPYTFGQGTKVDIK
notes: human IgG4 Fc (H4H prefix)
For the molecule B4, the “Response of mAb-2 Binding” value with hPDGFRb.mmh [7] turned out to be 0.33 nm. Besides, the binding result in experiment [8], in experiment [9], in experiment [10] and in experiment [3] was “no binding (tested: 50nM)” each time.
